Experimental data: patent US20190201542A1, “ANTI-DLL3 DRUG CONJUGATES FOR TREATING TUMORS AT RISK OF NEUROENDOCRINE TRANSITION” (ABBVIE STEMCENTRX LLC, priority 2016, published 2019)

Molecular target: T1, DLL3 (Homo sapiens, UniProt Q9NYJ7)
T1 sequence (Q9NYJ7 27-618): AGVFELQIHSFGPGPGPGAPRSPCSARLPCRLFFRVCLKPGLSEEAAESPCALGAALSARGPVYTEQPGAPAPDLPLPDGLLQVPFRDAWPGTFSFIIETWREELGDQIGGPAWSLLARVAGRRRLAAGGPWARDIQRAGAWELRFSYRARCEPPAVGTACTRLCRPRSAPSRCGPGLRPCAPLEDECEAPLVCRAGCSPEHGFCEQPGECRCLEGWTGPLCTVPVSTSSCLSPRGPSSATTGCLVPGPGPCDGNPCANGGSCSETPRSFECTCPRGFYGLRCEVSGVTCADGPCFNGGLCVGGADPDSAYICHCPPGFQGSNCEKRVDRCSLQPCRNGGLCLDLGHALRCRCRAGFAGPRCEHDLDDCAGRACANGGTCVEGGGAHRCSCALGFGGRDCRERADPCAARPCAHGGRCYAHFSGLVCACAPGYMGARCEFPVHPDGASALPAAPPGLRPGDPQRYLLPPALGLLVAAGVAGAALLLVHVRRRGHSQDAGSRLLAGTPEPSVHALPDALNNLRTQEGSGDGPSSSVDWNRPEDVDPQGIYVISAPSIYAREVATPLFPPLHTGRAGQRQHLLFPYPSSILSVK
Test: Binning (competitive antibody binding)
Source text: It is also possible to characterize the antibodies of the invention in terms of the group or “bin” to which they belong. “Binning” refers to the use of competitive antibody binding assays to identify pairs of antibodies that are incapable of binding an immunogenic determinant simultaneously, thereby identifying antibodies that “compete” for binding. Competing antibodies may be determined by an assay in which the antibody or immunologically functional fragment being tested prevents or inhibits specific binding of a reference antibody to a common antigen. Typically, such an assay involves the use of purified antigen (e.g., DLL3, ASCL1, or a domain or fragment thereof) bound to a solid surface or cells, an unlabeled test antibody and a labeled reference antibody. Competitive inhibition is measured by determining the amount of label bound to the solid surface or cells in the presence of the test antibody. Additional details regarding methods for determining competitive binding are provided in the Examples herein. […]
A schematic summary of the domain-level epitope mapping data of the antibodies tested is presented in FIG. 2, with antibodies binding a linear epitope underlined and, where determined, the corresponding bin noted in parenthesis. […]

B1: SC16.23: murine anti-DLL3 antibody (antibody, V domains shown)
VL: QIVLTQSPAIMSASPGEKVTLTCSASSSVSSRYLYWYQQKPGSSPKLWIYSTSNLASGVPARFSGSGSGTSYSLIISSMEAEDAASYFCHQWSNYPLTFGAGTKLELK
VH: QVTLKESGPGILQPSQTLSLTCSFSGFSLSTSNTGIGWIRQPSGTGLEWLAHIWWNDDKYYNPSLKSRLTISKETSNNQVFLKITNVDTADTASYFCVQIGRDYSNYAWYFDVWGAGTTVTVSS
  Binning with SC16.34 or SC16.56: not to bin with SC16.34 or SC16.56
